In patent US9809653B2, “Anti-LAMP1 antibodies and antibody drug conjugates, and uses thereof” (SANOFI, priority 2012, dated 2017):

Key:
[1] = system: cynomolgus monkey LAMP1 protein (SEQ ID NO: 29); assay: ELISA on cynomolgus monkey LAMP1; format: binding; conditions: FIG. 3
Protocol: Extracellular domain of LAMP1 of human (Ala29-Met382 of SEQ ID NO: 24) and cynomolgus monkey LAMP1 (Ala27-Met380 of SEQ ID NO: 39) were prepared as described in example 6.2. […] The antibody binding was visualized by adding TMB-H2O2 buffer and read at a wavelength of 450 nm.
Antibody MAb4 was assessed for its ability to bind primate LAMP1 protein by enzyme-linked immunosorbent assay (ELISA) assay as described in example 4.7 and EC50 values determined as described in example 6.2.

[2] = system: cynomolgus monkey LAMP1 expressed transiently at the cell surface of HEK293; assay: FACS on HEK293 cells transiently transfected with cynomolgus LAMP1; format: binding; conditions: transient HEK293
Sequence of cynomolgus monkey LAMP1 expressed transiently at the cell surface of HEK293 (as listed by the source): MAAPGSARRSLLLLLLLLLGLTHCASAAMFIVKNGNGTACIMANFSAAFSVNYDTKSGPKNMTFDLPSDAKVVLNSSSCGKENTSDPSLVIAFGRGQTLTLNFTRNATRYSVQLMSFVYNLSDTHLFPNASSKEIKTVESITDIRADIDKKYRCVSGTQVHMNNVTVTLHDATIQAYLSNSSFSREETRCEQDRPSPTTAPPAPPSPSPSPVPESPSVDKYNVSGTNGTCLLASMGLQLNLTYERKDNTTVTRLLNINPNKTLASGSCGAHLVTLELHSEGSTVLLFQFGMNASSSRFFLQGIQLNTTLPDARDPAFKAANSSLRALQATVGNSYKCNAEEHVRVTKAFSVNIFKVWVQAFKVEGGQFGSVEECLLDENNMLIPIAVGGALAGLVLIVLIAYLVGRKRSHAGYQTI
From the text: LAMP1 Coding DNA Sequence, RefSeq NM_005561.3 (SEQ ID NO: 23) was cloned internally. The CDS of Macaca mulatta LAMP1, RefSeq XP_001087801 (SEQ ID NO: 27) was also cloned internally. The predicted sequences of mature LAMP1 from Macaca mulatta and Macaca fascicularis are identical to 99%, said sequence differing by one additional Leucin at position 11 of Macaca mulatta (SEQ ID NO: 27), i.e. in the signal peptide. The mature LAMP1 proteins of Macaca mulatta and Macaca fascicularis are identical. Therefore the secreted LAMP1 used in the following example is referred to cynomolgus monkey. Both CDS were cloned into mammalian expression plasmids under CMV enhancer/promoter and SV40 polyA signals. HEK293 cells (Invitrogen; #K9000-10.) were transiently transfected with human LAMP1 or cynomolgus LAMP1 plasmids using FreeStyle™ MAX 293 Expression System according to the manufacturer's instructions. […] 100 μL/well of goat anti-mouse IgG conjugated with Alexa647 (Invitrogen; #A2135) was added for 45 min at 4° C. and washed three times with PBS 1% BSA. The antibody binding was evaluated after centrifugation and resuspension of cells by adding 200 μl/well PBS 1% BSA and read using Guava® easyCyte™ 8HT Flow Cytometry System. EC50 values were estimated using BIOST@T-SPEED software.

Sequence of cynomolgus monkey LAMP1 protein (SEQ ID NO: 29) (as listed by the source): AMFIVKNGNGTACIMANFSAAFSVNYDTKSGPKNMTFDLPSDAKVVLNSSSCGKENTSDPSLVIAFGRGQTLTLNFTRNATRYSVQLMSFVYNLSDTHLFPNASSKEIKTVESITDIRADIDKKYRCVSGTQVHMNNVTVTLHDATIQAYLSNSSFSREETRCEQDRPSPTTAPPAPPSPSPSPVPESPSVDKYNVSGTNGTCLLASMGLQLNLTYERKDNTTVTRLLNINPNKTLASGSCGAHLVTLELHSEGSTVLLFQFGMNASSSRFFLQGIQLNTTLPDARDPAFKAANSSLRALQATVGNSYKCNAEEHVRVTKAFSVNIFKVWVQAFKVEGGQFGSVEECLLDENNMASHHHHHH

- Binding affinity, cynomolgus monkey LAMP1 versus human LAMP1 [1]: in the same range
B1: MAb1: murine monoclonal anti-LAMP1 antibody, VH SEQ ID NO: 1, VL SEQ ID NO: 5 (antibody, V domains shown)
VH: QVQLQQSGAELVKPGASVKMSCKASGYIFTNYNIHWVKKSPGQGLEWIGAIYPGNGDAPYSQKFKDKATLTADKSSSTTYMQLSRLTSEDSAVYYCVRANWDVAFAYWGQGTLVSVSA
VL: DIQMTQSPPSLSASLGGKVTITCKASQDIDRYMAWYQDKPGKGPRLLIHDTSTLQPGIPSRFSGSGSGRDYSFSISNLEPEDIATYYCLQYDNLWTFGGGTKLEIK
modifications: Antibody Fragment; antibody fragment
- EC50 [2]: 44 nM
